One series deals with biotin-DNA. Description: Gel-based off-rate measurement against biotin-DNA-fluorescein. In kind it is binding. Particulars: for percentage of dissociated biotin conjugate after 10 h incubation with excess biotin: 23° C.
For series [1], the target named is T1, biotin-GFP (Aequorea victoria, UniProt P42212, A206V/E111V/F223Y/F64L/F99S/I128T/I167V/I171V/K158E/K166T/K26E/L221H/M153T/N105K/N149D/N164E/Q80R/S205T/S30R/S65T/T225N/V163A/Y145F/Y39I). Particulars: for percentage of dissociated biotin conjugate after 10 h incubation with excess biotin / Dissociation rate: Biotin-GFP; for percentage of dissociated biotin conjugate after 10 h incubation with excess biotin: 23° C.; for Dissociation rate: excess biotin; for dissociation of biotin-GFP from mRA mutants (in words): mutants at E115, Q46, S23, biotin addition, 45° C. for 30 min. The method, then:
After incubation at the indicated temperature (23° C., 37° C., or 45° C.) for varying time points (between 0 to 10 h), protein-conjugate mixtures were loaded onto a 15% native polyacrylamide gel. […] Data as ln(fraction bound) versus time and fitting the data to a straight line by linear regression.

In series [2] the target is T1, biotin-GFP. The conditions noted are these: 15% native-PAGE. The source says:
To monomerize rhizavidin, the present inventors introduced various numbers (one, six, and ten) of charged and hydrophilic amino acids, which have long side chains, at the dimeric interface (FIG. 1(a) and FIG. 4).

For another series, the system named is biotin-protein G. Kind of series: Gel-based off-rate measurement against biotin-protein G. In kind it is binding. Particulars: 37° C., excess biotin.
The next series has as its system biotin-AP. Description: Gel-based off-rate measurement against biotin-AP peptide. In kind it is binding. The conditions noted are these: 37° C., excess biotin.
The test system of a further series is HeLa cells. Kind of series: Clustering and internalization of biotinylated cell-surface proteins. In kind it is cell-based. The conditions noted are these: Cy5-labeled avidin proteins, 37° C. The method, then: Following biotinylation, the cells were washed twice with cold PBS-CM, treated with 100 mM glycine in PBS-CM for blocking, and washed again twice with cold PBS. […] Unbound avidin proteins were removed, and media was replaced with pre-warmed DMEM (37° C.). Cells were incubated for 5, 10, or 30 m at 37° C. Cells were washed, and fixed with 4% formaldehyde in PBS for confocal imaging (ZEISS, LSM510 META). To visualize endosome or lysozome-specific proteins, cells were fixed, permeabilized, and incubated with a primary antibody: anti-Rab11 (a GTPase of recycling endosome, Abcham) or anti-LAM P1 (Lysosomal-associated membrane protein 1, Abcham). Afterward, cells were incubated with a fluorescent secondary antibody (goat anti-rabbit 555, Abcham), and images were acquired with a confocal microscopy (ZEISS, LSM510 META).

For series [3] the following is noted: immobilized biotin or biotin-GFP, avidin proteins 5 μM. The method, then: Surface Plasmon Resonance (SPR) Analysis
SPR tests were performed in a Biacore 3000 instrument using dextran CM5 gold chips (GE Healthcare) and a PBS buffer as a running solution.

A short description of series [4]: Stability / aggregation of monomerized proteins in buffered solutions. The series is classed as physicochemical. The conditions noted are these: up to 1 mg/ml where stated.

Consider four molecules from patent publication US10017546B2 (KOREA ADVANCED INSTITUTE OF SCIENCE AND TECHNOLOGY, priority 2015, dated 2018).

Changes are numbered by the printed parent chain. Names may count otherwise. Read-outs that look alike come from different tables or passages of the source.

B1: Rhizavidin (RA): natural dimeric avidin protein from Rhizobium etli; core rhizavidin SEQ ID NO: 1 (protein)
chain: FDASNFKDFSSIASASSSWQNQSGSTMIIQVDSFGNVSGQYVNRAQGTGCQNSPYPLTGRVNGTFIAFSVGWNNSTENCNSATGWTGYAQVNGNNTEIVTSWNLAYEGGSGPAIEQGQDTFQYVPTTE
modifications: amino acid sequence of truncated Rhizavidin
In the case of B1, the “percentage of dissociated biotin conjugate after 10 h incubation with excess biotin” value in the series with biotin-DNA came to 48 ± 6.1% for 10 h*; in the series with biotin-GFP [1], 18 ± 3.0% for 10 h*. The Dissociation rate with biotin-GFP [1] (37° C.) is given as 5.0 ± 0.1 × 10^−5 s^−1; with biotin-GFP [1] (45° C.) it was 6.0 ± 0.6 × 10^−5 s^−1; in the series with biotin-protein G it was 3.2 ± 0.8 × 10^−5 s^−1; with biotin-AP, 4.9 ± 0.7 × 10^−5 s^−1. Besides, in the series with biotin-GFP [2], the “complexes formed with biotin-GFP” value is “two separated complexes”.

B2: Monodin (MA): monomeric avidin-like protein of SEQ ID NO: 3; mRA further carrying S23H, Q46E and E115W (protein)
chain: B1 chain with S23H, Q46E, A67D, G71K, A82N, G84Q, S101R, A105K, E115W
modifications: amino acid sequence of MA
notes: mRA further carrying S23H, Q46E and E115W
In the case of B2, in the series with HeLa cells, the “incubation time after which avidin protein was internalized” value was 30 min. Further, the “percentage of dissociated biotin conjugate after 10 h incubation with excess biotin” value in the series on biotin-DNA is 22 ± 6.0% for 10 h*; with biotin-DNA (listed as monodin), 22%; with biotin-GFP [1] it was 6.7 ± 1.1% for 10 h*; with biotin-GFP [1] (listed as MA), “less than 7%”. The Dissociation rate in the series with biotin-DNA (37° C., excess biotin) is on record as 2.7±0.3×10^−5 s^−1; with biotin-GFP [1] (37° C.), 2.3±0.1×10^−5 s^−1; with biotin-GFP [1] (45° C.) it was 6.4±0.2×10^−5 s^−1; in the series on biotin-protein G it was 4.6 ± 1.5 × 10^−5 s^−1; with biotin-AP it was 5.1 ± 0.7 × 10^−5 s^−1. In addition, in series [3], the “dissociation from surface-bound biotin conjugates by SPR” value is given as “not observed”. The “dissociation of biotin-GFP from mRA mutants (in words)” value with biotin-GFP [1] is on record as “highly slowed off-rate”.

B3: mRA: monomeric rhizavidin with six interfacial mutations (SEQ ID NO: 2) (protein)
chain: B1 chain with A67D, G71K, A82N, G84Q, S101R, A105K
modifications: amino acid sequence of mRA
Take B3: in series [4], the “stability / aggregation in buffered solutions” value is listed as “stable without any aggregation”. Moreover, in the series with biotin-GFP [1] (excess free biotin, 37° C. for 30 min, native-PAGE), the “biotin-GFP dissociated after biotin addition” value is listed as “Over 40%”.

B4: mRAWW: mRA with two tryptophan mutations (E115W and S23W) (protein)
chain: B1 chain with S23W, A67D, G71K, A82N, G84Q, S101R, A105K, E115W
B4: in series [4], the “stability / aggregation in buffered solutions” value is given as “highly prone to aggregation”. Moreover, the “dissociation of biotin-GFP from mRA mutants (in words)” value with biotin-GFP [1] is given as “the least dissociation of biotin-GFP”.
